# Results from the supplement of paper PMC9112550, “Optimization of the antimicrobial peptide Bac7 by deep mutational scanning” (BMC Biology, 2022).
# System: Escherichia coli TOP10
# Assay: shrunken log2 fold change of peptide-encoding DNA abundance (4.5 h post-induction vs induction); higher = less antimicrobial activity (less host growth inhibition)
# Settings: time post-induction: 4.5 h; library: site-saturation at positions 5, 18, 19, 20
# 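Further: peptides expressed intracellularly from a pBAD plasmid library in pooled LB shake-flask culture, induced with 0.3% L-arabinose, DNA abundance read by NGS, three biological replicates, DESeq2 with apeglm shrinkage.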
row,Sequence,shrunken log2 fold change
1,RRIRQRPPRLPRPRPRPTNEPRP,-0.395
2,RRIRQRPPRLPRPRPRPLYVPRP,-0.307
3,RRIRMRPPRLPRPRPRPHEGPRP,0.443
4,RRIRCRPPRLPRPRPRPPLRPRP,0.35
5,RRIRFRPPRLPRPRPRPFEYPRP,-0.281
6,RRIRDRPPRLPRPRPRPMPSPRP,0.026
7,RRIRTRPPRLPRPRPRPHNQPRP,-0.369
8,RRIRNRPPRLPRPRPRPYTPPRP,-0.0563
9,RRIRGRPPRLPRPRPRPGWAPRP,0.992
10,RRIRTRPPRLPRPRPRPHQNPRP,-0.253
11,RRIRNRPPRLPRPRPRPIYFPRP,-0.767
12,RRIRRRPPRLPRPRPRPSPSPRP,0.386
13,RRIRVRPPRLPRPRPRPYMVPRP,-0.292
14,RRIRLRPPRLPRPRPRPCPKPRP,0.136
15,RRIRARPPRLPRPRPRPQSNPRP,-0.142
16,RRIRYRPPRLPRPRPRPSKGPRP,-0.203
17,RRIRNRPPRLPRPRPRPRAIPRP,0.064
18,RRIRYRPPRLPRPRPRPPEHPRP,-0.0551
19,RRIRCRPPRLPRPRPRPSKRPRP,-0.12
20,RRIRQRPPRLPRPRPRPFCRPRP,-0.0325

row,Sequence,shrunken log2 fold change
1,RRIRTRPPRLPRPRPRPRMGPRP,0.108
2,RRIRFRPPRLPRPRPRPSDCPRP,-0.476
3,RRIRYRPPRLPRPRPRPPEPPRP,0.35
4,RRIRARPPRLPRPRPRPVWLPRP,0.399
5,RRIRARPPRLPRPRPRPCLMPRP,-0.0504
6,RRIRTRPPRLPRPRPRPWSIPRP,-0.325
7,RRIRYRPPRLPRPRPRPWELPRP,0.0358
8,RRIRRRPPRLPRPRPRPVLSPRP,0.0336
9,RRIRQRPPRLPRPRPRPEQAPRP,0.378
10,RRIRVRPPRLPRPRPRPSADPRP,-0.397
11,RRIRGRPPRLPRPRPRPANYPRP,0.0041
12,RRIRNRPPRLPRPRPRPGLGPRP,0.611
13,RRIRNRPPRLPRPRPRPRCNPRP,-0.0207
14,RRIRGRPPRLPRPRPRPVWRPRP,1.21
15,RRIRERPPRLPRPRPRPPKSPRP,0.21
16,RRIRMRPPRLPRPRPRPAVSPRP,0.494
17,RRIRARPPRLPRPRPRPKWDPRP,0.373
18,RRIRKRPPRLPRPRPRPQYYPRP,-0.359
19,RRIRRRPPRLPRPRPRPLLCPRP,0.35
20,RRIRSRPPRLPRPRPRPHAHPRP,-0.32

row,Sequence,shrunken log2 fold change
1,RRIRERPPRLPRPRPRPLRSPRP,0.474
2,RRIRERPPRLPRPRPRPVRMPRP,0.11
3,RRIRQRPPRLPRPRPRPTMAPRP,0.216
4,RRIRSRPPRLPRPRPRPYECPRP,-0.356
5,RRIRLRPPRLPRPRPRPNRTPRP,0.0829
6,RRIRVRPPRLPRPRPRPLNSPRP,-0.298
7,RRIRQRPPRLPRPRPRPCSHPRP,0.0226
8,RRIRPRPPRLPRPRPRPPKNPRP,0.26
9,RRIRVRPPRLPRPRPRPQIPPRP,-0.298
10,RRIRQRPPRLPRPRPRPLRAPRP,0.825
11,RRIRLRPPRLPRPRPRPMAMPRP,0.0591
12,RRIRFRPPRLPRPRPRPWQRPRP,-0.0586
13,RRIRLRPPRLPRPRPRPNLGPRP,-0.0507
14,RRIRYRPPRLPRPRPRPILHPRP,-0.141
15,RRIRFRPPRLPRPRPRPDRLPRP,0.147
16,RRIRARPPRLPRPRPRPFMDPRP,0.00846
17,RRIRWRPPRLPRPRPRPITQPRP,-0.0367
18,RRIRARPPRLPRPRPRPYVIPRP,-0.434
19,RRIRQRPPRLPRPRPRPCPCPRP,-0.354
20,RRIRVRPPRLPRPRPRPKMVPRP,-0.109
